B1: anti-cTnT Fab mutant 22 (F60W, Y104F) (Fab, V domains shown)
VH: EVQLQQSGPELVKPGASVKMSCKASGYTFTDYYMKWVKQSHGKSLEWIGDINPNNGETWYNQKFKDKATLTVDKSSSTAYMQLNSLTSEDSAVYYCATRVFDFWGQGTTLTVSS
VL: DIVLTQSPASLAVSLGQRATISCKASQSVDYDGTSYMNWFQQKAGQPPKRLIYAASNLESGIPARFSGRGSGTDFALNIHPVEEEDAATYYCQQSNEDPYTFGGGTKLEIK
notes: also called combination 22
B2: anti-cTnT Fab mutant 16 (Y34I, V101Y + Y104F) (Fab, V domains shown)
VH: B1 VH with Y33I, W59F, V100Y
VL: B1 VL
notes: also called combination 16
B3: anti-cTnT Fab mutant 23 (F60W, V101Y + Y104F) (Fab, V domains shown)
VH: B1 VH with V100Y
VL: B1 VL
notes: it was tied to mutant 23 by the printed mutations; also called combination 23
B4: anti-cTnT Fab mutant 19 (Y104F) (Fab, V domains shown)
VH: B1 VH with W59F
VL: B1 VL
notes: also called combination 19
B5: anti-cTnT Fab mutant 18 (V101Y) (Fab, V domains shown)
VH: B1 VH with W59F, V100Y, F103Y
VL: B1 VL
notes: it was tied to mutant 18 by the printed mutation V101Y; also called combination 18
B6: anti-cTnT Fab mutant 21 (F60W, V101Y) (Fab, V domains shown)
VH: B1 VH with V100Y, F103Y
VL: B1 VL
notes: also called combination 21
B7: anti-cTnT Fab mutant 17 (F60W) (Fab, V domains shown)
VH: B1 VH with F103Y
VL: B1 VL
notes: also called combination 17
B8: anti-cTnT Fab mutant 20 (V101Y + Y104F) (Fab, V domains shown)
VH: B1 VH with W59F, V100Y
VL: B1 VL
notes: also called combination 20

Positions count from the first letter of the chain named. Numbers in names are those of the source.

The target of one test is T1, recombinant human cardiac troponin T (human, UniProt P45379 2-298).
T1 construct: In the ECL assay the cTnT came from the Troponin T hs CalSet calibrator; also called cTnT; TnT
The test can be described thus: SPR (Biacore T200, 37 C), Fab captured, cTnT analyte; Fab fragment. Here is the method:
Detailed kinetic investigations were performed at 37° C. on a GE Healthcare T200 instrument. A Biacore CM-5 series S sensor was mounted into the instrument and was preconditioned according to the manufacturer's instructions. The system buffer was HBS-ET (10 mM HEPES (pH 7.4), 150 mM NaCl, 1 mM EDTA, 0.05% (w/v) Tween® 20). The sample buffer was the system buffer supplemented with 1 mg/ml CMD (Carboxymethyldextran, Fluka). In one embodiment an anti-human antibody capture system was established on the CMS biosensor. GAHF(ab′)2, (goat anti human F(ab′)2) (Code Nr.: 109-005-097, lot #13.12.2005, Jackson Immuno Research) was immobilized according to the manufacturer's instructions using NHS/EDC chemistry. 30 μg/ml GAHF(ab′)2 in 10 mM sodium acetate buffer (pH 5.0) were preconcentrated to the flow cells 1, 2, 3 and 4 and were immobilized with 10.000 RU GAHF(ab′)2. […]
Chimeric anti-TnT antibody fragments were periplasmatically expressed in E. coli cells as described and were lyzed by methods known (for technical details see: Andersen, D. C. & Reilly, D. E. (2004); Production technologies for monoclonal antibodies and their fragments. Curr Opin Biotechnol 15, 456-62). […] The Fab fragment capture level (CL) in response units (RU) was monitored. […] The analyte concentration series were 80 μl/min for 3 min association phase and the dissociation phase was monitored for 3 min. […]
On the technique in general: In SPR one partner is held on a chip, and binding of the other changes the refractive index at the surface.
By Kd is commonly meant the free concentration of one partner at which half of the binding sites on the other are occupied at equilibrium, for simple one-to-one binding. In the case of B1, the dissociation constant Kd amounted to 0.38 nM.

The next test addresses T1, recombinant human cardiac troponin T. The test can be described thus: SPR (Biacore T200, 37 C), Fab captured, cTnT analyte. The method, then: Detailed kinetic investigations were performed at 37° C. on a GE Healthcare T200 instrument. A Biacore CM-5 series S sensor was mounted into the instrument and was preconditioned according to the manufacturer's instructions. The system buffer was HBS-ET (10 mM HEPES (pH 7.4), 150 mM NaCl, 1 mM EDTA, 0.05% (w/v) Tween® 20). The sample buffer was the system buffer supplemented with 1 mg/ml CMD (Carboxymethyldextran, Fluka). In one embodiment an anti-human antibody capture system was established on the CMS biosensor. GAHF(ab′)2, (goat anti human F(ab′)2) (Code Nr.: 109-005-097, lot #13.12.2005, Jackson Immuno Research) was immobilized according to the manufacturer's instructions using NHS/EDC chemistry. 30 μg/ml GAHF(ab′)2 in 10 mM sodium acetate buffer (pH 5.0) were preconcentrated to the flow cells 1, 2, 3 and 4 and were immobilized with 10.000 RU GAHF(ab′)2. The sensor was subsequently saturated with 1 M ethanolamine pH 8.5.
Chimeric anti-TnT antibody fragments were periplasmatically expressed in E. coli cells as described and were lyzed by methods known (for technical details see: Andersen, D. C. & Reilly, D. E. (2004); Production technologies for monoclonal antibodies and their fragments. Curr Opin Biotechnol 15, 456-62). The lysates were diluted 1:20 in sample buffer. Fab fragments were captured via their humanized framework regions from the expression lysates on the biosensor at a flow rate of 10 μl/min for 1 min followed by a 2 min washing step with 10-fold concentrated HBS-EP buffer at 30 μl/min. The Fab fragment capture level (CL) in response units (RU) was monitored. Recombinant human TnT (Roche, 37 kDa) was diluted in sample buffer at 90 nM and a concentration series was produced with […], 30 nM, 11 nM, 3.3 nM, 1.1 nM, 0 nM, 3.3 nM TnT concentration. The analyte concentration series were 80 μl/min for 3 min association phase and the dissociation phase was monitored for 3 min.
The kinetic parameters ka [1/Ms], kd [1/s], t1/2 diss [min], KD [M] and the binding stoichiometry (Molar Ratio) (for details see: Schraeml, M. & Biehl, M. (2012); Kinetic screening in the antibody development process. Methods Mol Biol 901, 171-81.) of the cTnT analyte were determined for each Fab fragment mutant with the Biaevaluation Software (GE healthcare) according to the manufacturer's instructions.
What is called koff is the first-order rate constant of dissociation. Broadly, the kon is the second-order rate constant of association. Take B2: the Kd came to 3.4 nM, the “MR (Molar Ratio)” value amounted to 0.6, the koff amounted to 0.0059 s⁻¹ and the kon was 1.7e+06 M⁻¹ s⁻¹. Also, the t/2-diss is 2 min.

Regarding B3, the equilibrium dissociation constant (Kd) amounted to 1.2 nM, the “MR (Molar Ratio)” value is 0.6, the koff was found to be 0.0034 s⁻¹ and the association rate constant (kon) is 2.8e+06 M⁻¹ s⁻¹. Moreover, the t/2-diss is 3 min.

Regarding B4, the Kd is 0.46 nM, the “MR (Molar Ratio)” value was determined as 0.8, the koff was 0.0014 s⁻¹ and the association rate constant (kon) came to 2.9e+06 M⁻¹ s⁻¹. In addition, the t/2-diss came to 8 min.

As to B1, the “MR (Molar Ratio)” value was determined as 0.7, the koff turned out to be 0.0011 s⁻¹, the kon is 3e+06 M⁻¹ s⁻¹ and the t/2-diss is 10 min.

For the molecule B5, the Kd turned out to be 1.6 nM, the “MR (Molar Ratio)” value was found to be 0.5, the off-rate (koff) stood at 0.0047 s⁻¹ and the association rate constant (kon) turned out to be 2.9e+06 M⁻¹ s⁻¹. In addition, the t/2-diss is 2 min.

In the case of B6, the Kd was found to be 1.6 nM, the “MR (Molar Ratio)” value stood at 0.5, the off-rate (koff) came to 0.0043 s⁻¹ and the kon was determined as 2.7e+06 M⁻¹ s⁻¹.

For B7, the Kd worked out at 0.54 nM, the “MR (Molar Ratio)” value was found to be 0.7, the off-rate constant (koff) turned out to be 0.0016 s⁻¹ and the kon stood at 2.9e+06 M⁻¹ s⁻¹. The t/2-diss turned out to be 7 min.

For B8, the dissociation constant Kd stood at 1.1 nM, the “MR (Molar Ratio)” value was found to be 0.6, the koff came to 0.0034 s⁻¹ and the on-rate (kon) amounted to 3.1e+06 M⁻¹ s⁻¹. For the same molecule, the t/2-diss turned out to be 3 min.

For the origin of these results see US20210009668A1 (ROCHE DIAGNOSTICS OPERATIONS, published 2021).
